The values below come from publication PMC10325919 (2023).

The test has as its target T1, E. coli expressed BAHD1(aa:588–780) (UniProt Q8TBE0 588-780).
T1 chain: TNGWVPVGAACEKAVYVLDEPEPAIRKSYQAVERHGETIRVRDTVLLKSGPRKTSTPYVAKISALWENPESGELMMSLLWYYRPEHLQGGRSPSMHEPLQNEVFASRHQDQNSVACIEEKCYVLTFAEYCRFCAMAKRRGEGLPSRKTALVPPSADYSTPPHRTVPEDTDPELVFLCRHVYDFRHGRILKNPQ
The test can be described thus: FP.

Starred links: 1 amine or outer side, 2 acyl side, 3 side chain; linkers in the order of their positions; H or OH if unused. Non-standard residues stand in square brackets, D forms with d. No end group written: not given here. Lys(Me3) = C[N+](C)(C)CCCC[C@H](N)C(=O)O; Ethylenediamine = C(CN[*:2])N[*:1]; 5‑FAM = 5-carboxyfluorescein; GABA = NCCCC(=O)O

As usually defined, the Kd is the concentration at which binding is half-saturated. A high value points to a looser complex. Consider PRKQLATKAAR[Lys(Me3)]SAPATGG-{Ethylenediamine-GABA-5‑FAM} [H3 16–35 K27me3 peptide], for which the dissociation constant (Kd) came out at 700 nM.
